Experimental findings from publication PMC6872938 are described below.

Experiment [1] deals with His6-tagged HzTransib transposase (Transib transposase from Helicoverpa zea), residues 17-507 (Helicoverpa zea). The experiment can be described thus: SEC-MALS. In general terms: In gel filtration, larger molecules generally elute earlier.
The target of experiment [2] is MBP-tagged HzTransib transposase (Transib transposase from Helicoverpa zea), residues 17-507 (Helicoverpa zea). The experiment is described as follows: SEC-MALS.

“His6-tagged HzTransib transposase (Transib transposase from Helicoverpa zea), residues 17-507 (enzyme)” showed a stoichiometry N in experiment [1] of 2. In experiment [2], “MBP-tagged HzTransib transposase (Transib transposase from Helicoverpa zea), residues 17-507 (enzyme)” came in with a stoichiometry N of 2.

As a reminder, the stoichiometry N is the number of molecules, sites or subunits per partner or assembly.
